B1: DOM7h-14-10 (other)
VL: DIQMTQSPSSLSASVGDRVTITCRASQWIGSQLSWYQQKPGKAPKLLIMWRSSLQSGVPSRFSGSGSGTDFTLTISSLQPEDFATYYCAQGLRHPKTFGQGTKVEIKR
notes: Vk dAb (AlbudAb); tag not included here
B2: DOM7h-14-56 (other)
VL: DIQMTQSPSSLSASVGDRVTITCRASQWIGSQLSWYQQKPGKAPMLLIMWSSSLQSGVPSRFSGSGSGTDFTLTISSLQPEDFATYYCAQGLRHPKTFGQGTKVEIKW
notes: pDOM5 myc tag not included
B3: DOM7h-14-65 (other)
VL: DIQMTQSPSSLSASVGDRVTITCRASQWIGSQLSWYQQKPGKAPKLLIMWRSALQSGVPSRFSGSGSGTDFTLTISSLQPEDFATYYCAQGLRHPKTFGQGTKVEIKW
notes: pDOM5 myc tag not included
B4: DOM7h-14-74 (other)
VL: DIQMTQSPSSLSASVGDRVTITCRASQWIGSQLSWYQQKPGKAPKLLIMWRSSLQSGVPSRFSGSGSGTDFTLTISSLQPEDFATYYCAQGLRHPKTYGKGTKVENKW
notes: pDOM5 myc tag not included
B5: DOM7h-14-76 (other)
VL: DIQMTQSPSSLSASVGDRVTITCRASQWIGSQLSWYQQKPGKAPKLLIMWRSSLQSGVPSRFSGSGSGTDFTLTISSLQPEDFATYYCAQGLKHPKTYGQGTKVEIKW
notes: pDOM5 myc tag not included
B6: DOM7h-14-82 (other)
VL: DIQMTQSPSSLSASVGDRVTITCRASQWIGSQLSWYQQKPGKAPKLLIMWRSSLQSGVPSRFSGSGSGTDFTLTISSLQPEDFATYYCAQGMRHPKTFGQGTKVEIKW
notes: pDOM5 myc tag not included
B7: DOM7h-14-100 (other)
VL: DIQMTQSPSSLSASVGDRVTITCRASQWIGSQLSWYQQKPGKAPKLLIMWRSSLQSGVPSRFSGSGSGTDFTLTISSLQPEDFATYYCAQGLRHPKTYGQGTKVENKW
notes: pDOM5 myc tag not included
B8: DOM7h-14-101 (other)
VL: DIQMTQSPSSLSASVGDRVTITCRASQWIGSQLSWYQQKPGKAPKLLIMWRSALQNGVPSRFSGSGSGTDFTLTISSLQPEDFATYYCAQGLRHPKTFGQGTKVEIKW
notes: pDOM5 myc tag not included
B9: DOM7h-14-109 (other)
VL: DIQMTQSPSSLFASVGDRVTITCRASQWIGSQLSWYQQKPGKAPKLLIMWRSSLQSGVPSRFSGSGSGTDFTLTISSLQPEDFATYYCAQGLRKPKTFGQGTKVKIKW
notes: pDOM5 myc tag not included
B10: DOM7h-14-115 (other)
VL: DIQMTQSPSSLSASVGDRVTITCRASQWIGSQLSWYQQKPGKAPKLLIMWRSALQSGVPSRFSGSGSGTDFTLTISSLQPEDFATYYCAQGLRHPKTYGQGTKVEIKW
notes: pDOM5 myc tag not included
B11: DOM7h-14-116 (other)
VL: DIQMTQSPSSLSASVGDRVTITCRASQWIGSQLSWYQQKPGKAPKLLIMWRSALQSGVPSRFSGSGSGTDFTLTISSLQPEDFATYYCAQGLRYPKTFGQGTKVEIKW
notes: pDOM5 myc tag not included
B12: DOM7h-14-119 (other)
VL: DIQMTQSPSSLSASVGDRVTITCRASQWIGSQLSWYQQKPGKAPKLLIMWRSSLQSGVPSRFSGSGSGTDFTLTISSLQPEDFATYYCAQGLRHPKTYGQGTKVEIKR
B13: DOM7h-14-120 (other)
VL: DIQMTQSPSSLSASVGDRVTITCRASQWIGSQLSWYQQKPGKAPKLLIMWRSSLQSGVPSRFSGSGSGTDFTLTISSLQPEDFATYYCAQGLRHPKTYGQGTKVENKR
B14: DOM7h-14-122 (other)
VL: DIQMTQSPSSLSASVGDRVTITCRASQWIGSQLSWYQQKPGKAPKLLIMWRSSLQSGVPSRFSGSGSGTDFTLTISSLQPEDFATYYCAQGLRHPKTYGKGTKVEIKR
B15: DOM7h-14-123 (other)
VL: DIQMTQSPSSLSASVGDRVTITCRASQWIGSQLSWYQQKPGKAPKLLIMWRSSLQSGVPSRFSGSGSGTDFTLTISSLQPEDFATYYCAQGLRHPKTYGKGTKVENKR

Legend:
mouse serum albumin = biological target: T1, mouse serum albumin (mouse, UniProt P07724 25-608); assay: SPR (BIAcore), purified dAb
T1 construct: mature; Bought purified serum protein; also called MSA; mouse SA
Experimental: (§1) Unique dAbs were expressed as bacterial supernatants in 0.5 L shake flasks in Onex media at 30° C. for 48 hrs at 250 rpm. dAbs were purified from the culture media by absorption to protein L streamline followed by elution with 100 mM glycine pH2.0.

Rat Serum Albumin [1] = biological target: T2, Rat Serum Albumin (rat, UniProt P02770 25-608); assay: SPR (BIAcore), purified dAb
T2 construct: mature; Bought purified serum protein; also called RSA; rat SA
T2 sequence (P02770 25-608): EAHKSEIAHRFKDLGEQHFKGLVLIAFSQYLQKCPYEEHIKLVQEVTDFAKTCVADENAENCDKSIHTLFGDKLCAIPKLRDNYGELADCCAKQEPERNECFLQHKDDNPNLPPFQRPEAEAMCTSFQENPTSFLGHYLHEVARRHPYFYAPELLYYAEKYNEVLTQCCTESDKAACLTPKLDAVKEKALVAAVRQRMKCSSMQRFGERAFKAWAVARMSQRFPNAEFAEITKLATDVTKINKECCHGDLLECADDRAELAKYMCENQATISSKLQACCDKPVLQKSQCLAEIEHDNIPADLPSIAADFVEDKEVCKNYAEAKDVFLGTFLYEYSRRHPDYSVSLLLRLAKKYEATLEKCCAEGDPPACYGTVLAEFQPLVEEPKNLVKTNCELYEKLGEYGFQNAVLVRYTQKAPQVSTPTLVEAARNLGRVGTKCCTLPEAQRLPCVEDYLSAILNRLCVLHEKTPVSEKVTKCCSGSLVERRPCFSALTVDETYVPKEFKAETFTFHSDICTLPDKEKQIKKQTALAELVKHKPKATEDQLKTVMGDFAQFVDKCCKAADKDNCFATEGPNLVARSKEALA
Experimental: as §1

[2] = biological target: T3, Cynomolgus monkey Serum Albumin (Cynomolgus monkey, UniProt A2V9Z4 25-608); assay: SPR (BIAcore), purified dAb
T3 construct: mature; Purified in house; also called CSA; cyno serum albumin
T3 sequence (A2V9Z4 25-608): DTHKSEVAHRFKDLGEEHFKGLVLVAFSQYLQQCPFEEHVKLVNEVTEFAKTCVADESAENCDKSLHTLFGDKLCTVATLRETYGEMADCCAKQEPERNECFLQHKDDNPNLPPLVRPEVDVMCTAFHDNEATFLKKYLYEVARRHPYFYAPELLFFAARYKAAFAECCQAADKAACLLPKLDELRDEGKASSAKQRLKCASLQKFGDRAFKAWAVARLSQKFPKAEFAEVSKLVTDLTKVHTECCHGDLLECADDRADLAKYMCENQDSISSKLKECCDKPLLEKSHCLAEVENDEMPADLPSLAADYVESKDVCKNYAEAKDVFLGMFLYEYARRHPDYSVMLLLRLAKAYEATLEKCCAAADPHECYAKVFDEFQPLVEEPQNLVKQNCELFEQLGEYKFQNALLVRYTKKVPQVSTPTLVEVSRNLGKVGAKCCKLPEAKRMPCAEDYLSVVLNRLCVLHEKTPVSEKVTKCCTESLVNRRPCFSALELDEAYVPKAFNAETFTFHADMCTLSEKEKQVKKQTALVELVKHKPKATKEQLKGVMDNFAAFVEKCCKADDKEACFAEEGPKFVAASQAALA
Experimental: as §1

Human Serum Albumin = biological target: T4, Human Serum Albumin (human, UniProt P02768 25-609); assay: SPR (BIAcore), purified dAb
T4 construct: mature; Bought purified serum protein; Immobilised on CM5 chips; also called HSA; human SA
T4 sequence (P02768 25-609): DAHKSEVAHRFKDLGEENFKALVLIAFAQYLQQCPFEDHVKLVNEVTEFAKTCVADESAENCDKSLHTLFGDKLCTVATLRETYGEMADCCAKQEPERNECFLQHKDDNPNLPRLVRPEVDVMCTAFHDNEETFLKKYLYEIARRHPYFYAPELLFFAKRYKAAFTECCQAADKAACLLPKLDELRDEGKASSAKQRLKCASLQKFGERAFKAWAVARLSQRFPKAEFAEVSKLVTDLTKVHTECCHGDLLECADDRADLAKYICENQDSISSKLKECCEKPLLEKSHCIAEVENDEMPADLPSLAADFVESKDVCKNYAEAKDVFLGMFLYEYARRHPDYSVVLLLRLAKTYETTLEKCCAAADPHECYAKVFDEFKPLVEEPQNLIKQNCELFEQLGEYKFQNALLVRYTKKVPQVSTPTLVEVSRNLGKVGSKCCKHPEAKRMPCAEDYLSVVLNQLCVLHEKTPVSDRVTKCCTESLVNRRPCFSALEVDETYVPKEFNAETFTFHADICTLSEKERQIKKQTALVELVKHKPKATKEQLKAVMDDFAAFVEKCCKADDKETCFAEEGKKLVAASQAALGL
Experimental: as §1

[3] = biological target: T3, Cynomolgus monkey Serum Albumin; assay: SPR (BIAcore), purified dAb; second protein batch, second analyst
Experimental: as §1

Rat Serum Albumin [4] = biological target: T2, Rat Serum Albumin; assay: as above
Experimental: as §1

Kd (mouse serum albumin) [nM] | Kd (Rat Serum Albumin [1]) [nM] | Kd [2] [nM] | Kd (Human Serum Albumin) [nM] | Kd [3] [nM] | Kd (Rat Serum Albumin [4]) [nM] | Binder
30.1 | 9.4 | – | – | – | – | B1
6.3 | 3.4 | 18.7 | 11.1 | – | – | B2
15.3 | – | – | – | 16 | 25 | B3
23.5 | 4.3 | 6.3 | 4.8 | 2.7 | 11.6 | B4
11.5 | 4.7 | 19.9 | 6.3 | – | – | B5
32.3 | 11.8 | 170 | 15.4 | – | – | B6
8 | 3.7 | 6.4 | 4.5 | 6.1 | 29 | B7
16.8 | 5.8 | 11.6 | 8.4 | – | – | B8
58.1 | 15.4 | 17.6 | 108 | – | – | B9
9.8 | – | – | – | – | – | B10
19.1 | 8.5 | 22.8 | 7 | – | – | B11
– | 6.2 | – | – | – | – | B12
– | 2.7 | 3.7 | 14 | – | – | B13
– | 7.8 | – | – | – | – | B14
– | 5.1 | 8 | 12 | – | – | B15

Reference: patent US20130230519A1 (published 2013)
